{
  "source": "patent US20090117124A1",
  "key": {"[1]": {"biological_target": "cynomolgus monkey IgE (in cynomolgus serum, Harlan Sera-Lab Ltd) (cynomolgus monkey)", "experiment": "capture ELISA, Test 1, Cyno 5"}, "[2]": {"biological_target": "cynomolgus monkey IgE (in cynomolgus serum, Harlan Sera-Lab Ltd) (cynomolgus monkey)", "experiment": "capture ELISA, Test 2, Cyno 2"}, "[3]": {"biological_target": "cynomolgus monkey IgE (in cynomolgus serum, Harlan Sera-Lab Ltd) (cynomolgus monkey)", "experiment": "capture ELISA, Test 2, Cyno 3"}, "[4]": {"biological_target": "cynomolgus monkey IgE (in cynomolgus serum, Harlan Sera-Lab Ltd) (cynomolgus monkey)", "experiment": "capture ELISA, Test 1, Cyno 3"}, "[5]": {"biological_target": "cynomolgus monkey IgE (in cynomolgus serum, Harlan Sera-Lab Ltd) (cynomolgus monkey)", "experiment": "capture ELISA, Test 2, Cyno 1"}, "[6]": {"biological_target": "cynomolgus monkey IgE (in cynomolgus serum, Harlan Sera-Lab Ltd) (cynomolgus monkey)", "experiment": "capture ELISA, Test 1, Cyno 7"}, "[7]": {"biological_target": "cynomolgus monkey IgE (in cynomolgus serum, Harlan Sera-Lab Ltd) (cynomolgus monkey)", "experiment": "capture ELISA, Test 1, Cyno 1"}, "[8]": {"biological_target": "cynomolgus monkey IgE (in cynomolgus serum, Harlan Sera-Lab Ltd) (cynomolgus monkey)", "experiment": "capture ELISA, Test 2, Cyno 7"}, "[9]": {"biological_target": "cynomolgus monkey IgE (in cynomolgus serum, Harlan Sera-Lab Ltd) (cynomolgus monkey)", "experiment": "capture ELISA, Test 1, Cyno 2"}, "[10]": {"biological_target": "cynomolgus monkey IgE (in cynomolgus serum, Harlan Sera-Lab Ltd) (cynomolgus monkey)", "experiment": "capture ELISA, Test 2, Cyno 5"}},
  "data": [
    {"substance": "E25 (antibody)", "values": [
      {"measurement": "IgE concentration detected", "setting": "[1]", "result": 232, "unit": "ng/mL"},
      {"measurement": "IgE concentration detected", "setting": "[2]", "result": 104, "unit": "ng/mL"},
      {"measurement": "IgE concentration detected", "setting": "[3]", "result": 135, "unit": "ng/mL"},
      {"measurement": "IgE concentration detected", "setting": "[4]", "result": 166, "unit": "ng/mL"},
      {"measurement": "IgE concentration detected", "setting": "[5]", "result": 146, "unit": "ng/mL"},
      {"measurement": "IgE concentration detected", "setting": "[6]", "result": 0, "unit": "ng/mL"},
      {"measurement": "IgE concentration detected", "setting": "[7]", "result": 172, "unit": "ng/mL"},
      {"measurement": "IgE concentration detected", "setting": "[8]", "result": 0, "unit": "ng/mL"},
      {"measurement": "IgE concentration detected", "setting": "[9]", "result": 52, "unit": "ng/mL"},
      {"measurement": "IgE concentration detected", "setting": "[10]", "result": 252, "unit": "ng/mL"}
    ]}
  ]
}
